According to patent US6991794B1, “Progenitor cell preservation factors and methods for and products of their use” (ImClone Systems Incorporated, priority 1997, dated 2006):

Experiments:
[1] = target: FLT3-transfected 3T3 cells (murine FLT3 extracellular portion/human Fms chimera and/or full-length human FLT3; not told apart); experiment: cell-based or functional assay
[2] = test system: human cord blood progenitors; experiment: cord blood mononuclear cell liquid culture followed by methylcellulose colony assay; assay type: cell-based; details: for Blast colonies / Erythroid colonies / Mix colonies / Myeloid colonies: 40 ng/ml, ± SD of triplicate
Procedure: To do this, umbilical cord blood from healthy donors was collected in 100 units/ml of heparin. Cord blood mononuclear cells (CB mnc) were isolated within 4 hours of collection by separation using the density separation medium sold under the trademark of FICOLL-PAQUE® (Pharmacia Biotech, Piscataway, N.J.) following manufacturer's instruction and washed in X-VIVO 10 medium (BioWhittaker, Walkersville, Md.). CB mnc were then cultured in six well tissue culture plates (Corning Inc., Corning, N.Y.) at a concentration of 200,000 cells/mL in a volume of 4 mL of X-VIVO 10 (i.e., 800,000 cells total per well). Dl-FRIL and/or recombinant E. coli Flt3-L (recFL; BioSource International, Camarillo, Calif.) were added at a concentration of 40 ng/ml at the outset (with no addition as a control). Cultures were incubated in humidified chambers without medium changes for up to 29 days.
After incubation, the cultured CB mnc cells were harvested by washing in X-VIVO 10 (i.e., harvested cells were pelleted and resuspended in X-VIVO 10) to remove the Dl-FRIL and/or recFL, and then determining viable cell number by trypan blue (Sigma) exclusion.
The progenitor capacity of the blast-like colonies was examined further for cells initially cultured for 3 weeks in either Dl-FRIL, recFL, no addition, or Dl-FRIL+recFL, and then without these regulators for an additional 6 weeks in a methylcellulose colony assay. […] Viable cells were harvested from the cells initially cultured in Dl-FRIL alone and replated in an colony assay (in methylcellulose colony assay medium) for an additional 4 weeks.

[3] = test system: CB CD34+ progenitor cells; experiment: ex vivo culture of CB CD34+ cells: total cell numbers and CFU assay; assay type: cell-based, human
Procedure: Human umbilical cord blood (CB) samples were obtained from full term deliveries. The blood samples were diluted 1:1 in phosphate-buffered-saline (PBS) without Mg^+2/Ca^+2, supplemented with 10% fetal bovine serum (FBS). Low density mononuclear cells were collected after standard separation on Ficoll-Paque (Pharmacia Biotech, Uppsala, Sweden), and washed in RPMI with 10% FBS. Some samples were frozen in 10% DMSO, while the others were used fresh. Enrichment of CD34^+ cells was performed with mini MACS separation kit (Miltenyi Biotec, Bergisch Gladbach, Germany) according to the manufacturer's instructions. The purity of the enriched CD34^+ cells was 60-80% using one column. […]
Ex vivo Cultures Human CD34^+ enriched cells were cultured in 24 well plates (2-4×10^5 cells in 0.5 mL), containing RPMI supplemented with 10% FBS+1% BSA. […] After 3, 6, 10 and 13 days, the cells were collected, counted, analyzed by FACS, seeded in to semisolid cultures and transplanted into NOD-SCID mice.
Semisolid cultures were performed in order to detect the levels of human progenitors in ex vivo cultures, and in the marrow of transplanted mice. […] The cultures were incubated at 37° C. in a humidified atmosphere containing 5% CO2 and scored 14 days later with an inverted microscope for myeloid, erythroid, and mixed colonies by morphologic criteria. […]

CB CD34+ cells = experiment: cell cycle analysis of CD34+ cells (propidium iodide); details: CD34+ cells cultured 3 days; mean ± SE
Procedure: Cells were analyzed for their DNA content by staining with propidium iodide (Sigma). The cells were cultured in ex vivo cultures as described, for 3, 6, 10, and 13 days as indicated. At each time point, the cells were collected, resuspended to a final concentration of 0.1-1×10^6 cells/mL, and incubated with 0.1% Triton X 100 (Sigma) for 20 minutes on ice. 50 mg/mL propidium iodide (PI) were added before analysis. Flow cytometeric analyses were performed using FACSort (Becton Dickinson, San Jose, Calif.).
The cell cycle status of CB CD34^+ cells was analyzed in 5 indepenent experiments with cells cultured for 3-13 days with either Dl-FRIL or a cytokine combination (SCF, Flt3-L, G-CSF, IL-3, IL-6) (Bhatia et al., J. Exp. Med. 186:619-624, 1997; Conneally et al., Proc. Natl. Acad. Sci. USA 94:9836-9841, 1997).

FLT3 receptor = assay type: cell-based; details: murine chimeric or full length human receptor
Text: A specific and quantitative biological assay using NIH 3T3 fibroblasts transfected either with a chimeric receptor having the extracellular portion of the murine FLT3 receptor combined with the intracellular portion of the human Fms receptor (Dosil et al., Mol. Cell. Biol. 13(10):6572-6585 1993) or with the full length human receptor (Small et al., Proc. Natl. Acad. Sci. USA 91:459-463, 1994) can be used to evaluate lectin biological activity during purification. Serial two-fold dilutions of lectin samples across rows of a 96 well plate allowed for greater than a thousand-fold range to access FLT3 3T3 biological activity.
Specifically, 3T3 cells cultured in tissue culture plates (Becton Dickinson Labware, Lincoln Park, N.J.) were removed from the plates by washing cells twice in Hank's buffered saline solution (HBSS; Gibco Laboratories, Grand Island, N.Y.). […] Proliferation and cell survival was quantitated by addition of XTT (2, 3-bis[Methoxy-4-nitro-5sulfophenyl]-2H-tetrazolium-5 carboxanilide inner salt) (Diagnostic Chemicals Ltd, Charlottetown, Prince Edward Island, Canada), which is a tetraformazan salt cleaved by actively respiring cells (Roehm et al., J. Immunol. Methods 142: 257-265, 1991). […] One unit of biological activity was defined as the reciprocal dilution at which half-maximal stimulation of cells is detected.

[4] = in vivo; cited from earlier work
[5] = test system: Flt3-expressing 3T3 cells; experiment: Flt3 3T3 assay during purification of Pv-FRIL; assay type: cell-based; details: by itself at <1 ng/mL
Procedure: To create factor-dependence for receptor-transfected 3T3 cells, growth conditions were compromised to permit only ligands to rescue cells from death. To do this, 3T3 cell lines were assayed in 96 well plates (Becton Dickinson Labware, Lincoln Park, N.J.) containing 3,000 cells in 100 μL of serum-free medium consisting of 10% AIMV (Life Technologies) and 90% DMEM. In each experiment, samples were serially diluted two-fold across rows starting at a 1:10 dilution. Viable cells were quantitated after 3-5 days by XTT (2,3-bis[Methoxy-4-nitro-5sulfophenyl]-2H-tetrazolium-5 carboxanilide inner salt) (Sigma, St. Louis, Mo.) (Roehm et al., supra). Relative activity (units/ml) and specific activity (units/mg) are defined as the reciprocal dilution at which half-maximal stimulation of cells was detected.
Each batch of PHA-LCM was generated in serum-free medium with cells from individual normal donors. To start purification, the PHA-LCM with Flt3 3T3 activity was pooled in 30 liter lots with approximately 10^7 Flt3 3T3 units. Twenty-five liters of PHA-LCM was diafiltered into 50 mM Tris-HCl, pH 7.6, 50 mM NaCl and then concentrated to 2-2.5 liters by tangential flow ultrafiltration on a 10 kDa molecular weight cutoff membrane (Pellicon, Millipore, Bedford, Mass.). A Blue-sepharose FF (Pharmacia Biotech) column (10 cm×15 cm) was equilibrated with 50 mM Tris-HCl, pH 7.4,50 mM NaCl. […]

Molecule: Pv-FRIL (native, from Phaseolus vulgaris red kidney bean extract / purified from PHA-LCM)
- Specific Activity (u/mg) in the Flt3 3T3 assay, Superdex 75 step [1]: 244000 units/mg

B1: recFL: recombinant E. coli Flt3-L (FLT3 ligand) (protein, UniProt P49771 27-235, looked up)
Fms-related tyrosine kinase 3 …: TQDCSFQHSPISSDFAVKIRELSDYLLQDYPVTVASNLQDEELCGGLWRLVLAQRWMERLKTVAGSKMQGLLERVNTEIHFVTKCAFQPPPSCLRFVQTNISRLLQETSEQLVALKPWITRQNFSRCLELQCQPDSSTLPPPWSPRPLEATAPTAPQPPLLLLLLLPVGLLLLAAAWCLHWQRTRRRTPRPGEQVPPVPSPQDLLLVEH
- colonies after 21 days culture and 6 weeks methylcellulose colony assay [2]: No colonies were detected
- fewer mature colonies than with FRIL or FRIL plus recFL ([2]; cells cultured 15 days): 24 fold
- Blast colonies ([2]; day 15 of culture): 0
- Erythroid colonies ([2]; day 15 of culture): 0
- Mix colonies ([2]; day 15 of culture): 0
- Myeloid colonies ([2]; day 15 of culture): 40 ± 69
- Blast colonies ([2]; day 21 of culture): 0
- Erythroid colonies ([2]; day 21 of culture): 0
- Mix colonies ([2]; day 21 of culture): 0
- Myeloid colonies ([2]; day 21 of culture): 0
- Blast colonies ([2]; day 29 of culture): 0
- Erythroid colonies ([2]; day 29 of culture): 0
- Mix colonies ([2]; day 29 of culture): 0
- Myeloid colonies ([2]; day 29 of culture): 0
- increase in number of total cells ([3]; 10 days of suspension culture, FIG. 34A): 4.5 fold
- percentage of CFU-GEMM ([3]; first factor 6 days, then cytokines): 18.2%
- G0/G1 (CB CD34+ cells): 68.4 ± 2.1 percentage
- SG2M (CB CD34+ cells): 22.2 ± 5.4 percentage
- Sub G0/G1 (CB CD34+ cells): 9.4 ± 3.3 percentage
- rescue of FLT3-transfected 3T3 cells from death (FLT3 receptor): rescue FLT3-transfected cells from death

B2: peanut agglutinin (PNA): dietary lectin from raw peanuts (protein, UniProt P02872 24-273, looked up)
Galactose-binding lectin: AETVSFNFNSFSEGNPAINFQGDVTVLSNGNIQLTNLNKVNSVGRVLYAMPVRIWSSATGNVASFLTSFSFEMKDIKDYDPADGIIFFIAPEDTQIPAGSIGGGTLGVSDTKGAGHFVGVEFDTYSNSEYNDPPTDHVGIDVNSVDSVKTVPWNSVSGAVVKVTVIYDSSTKTLSVAVTNDNGDITTIAQVVDLKAKLPERVKFGFSASGSLGGRQIHLIRSWSFTSTLITTTRRSIDNNEKKIMNMASA
- level in the blood [4]: 1000 to 5000 ng/mL

B3: recombinant hIL1-α: exogenous recombinant human interleukin 1-α (protein, UniProt P01583 113-271, looked up)
Interleukin-1 alpha: SAPFSFLSNVKYNFMRIIKYEFILNDALNQSIIRANDQYLTAAALHNLDEAVKFDMGAYKSSKDDAKITVILRISKTQLYVTAQDEDQPVLLKEMPEIPKTITGSETNLLFFWETHGTKNYFTSVAHPNLFIATKQDYWVCLAGGPPSITDFQILENQA
- stimulatory activity on Flt3 3T3 cells [5]: no stimulatory activity
